Laboratory results taken from doi:10.64898/2025.12.26.696629.

Target: T1, SufR6-229-His6 (holo, [4Fe-4S]) (Mycobacterium tuberculosis H37Rv, UniProt O53151 30-253)
T1 sequence: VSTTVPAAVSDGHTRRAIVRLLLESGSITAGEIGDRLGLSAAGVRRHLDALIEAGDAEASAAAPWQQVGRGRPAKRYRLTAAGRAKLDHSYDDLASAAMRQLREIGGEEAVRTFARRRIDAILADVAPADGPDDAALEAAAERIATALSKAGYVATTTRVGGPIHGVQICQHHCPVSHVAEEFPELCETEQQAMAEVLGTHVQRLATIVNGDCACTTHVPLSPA
Test: MST

B1: PsufR 50-bp (dsDNA)
DNA 1: CCGATCAACGGAATTTTGTCACACTGATGTTGTGAAAATCCCGGCGGTCT
DNA 2: AGACCGCCGGGATTTTCACAACATCAGTGTGACAAAATTCCGTTGATCGG
In the case of B1, the Kd is reported as 235 ± 45.8 nM.
